This is an account of results in the supplement of paper PMC9112550, “Optimization of the antimicrobial peptide Bac7 by deep mutational scanning” (BMC Biology, 2022).

This data set has as its system Escherichia coli TOP10. In words: shrunken log2 fold change of peptide-encoding DNA abundance (4.5 h post-induction vs induction); higher = less antimicrobial activity (less host growth inhibition). To be noted: time post-induction: 4.5 h; library: site-saturation at positions 5, 18, 19, 20.
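Note: peptides expressed intracellularly from a pBAD plasmid library in pooled LB shake-flask culture, induced with 0.3% L-arabinose, DNA abundance read by NGS, three biological replicates, DESeq2 with apeglm shrinkage.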

As for RRIRQRPPRLPRPRPRPPEYPRP, the “shrunken log2 fold change” value is -0.245.
Regarding RRIRERPPRLPRPRPRPWNDPRP, the “shrunken log2 fold change” value was -0.342.
With RRIRQRPPRLPRPRPRPCWDPRP, the “shrunken log2 fold change” value is -0.155.
On to RRIRDRPPRLPRPRPRPNKTPRP, for which the “shrunken log2 fold change” value is -0.132.
As for RRIRTRPPRLPRPRPRPCCSPRP, the “shrunken log2 fold change” value came to 0.123.
Under RRIRSRPPRLPRPRPRPWMVPRP stands -0.267; under RRIRPRPPRLPRPRPRPTQNPRP, 0.534; under RRIRRRPPRLPRPRPRPFLAPRP, 0.925.
Turning to RRIRKRPPRLPRPRPRPKTEPRP, the “shrunken log2 fold change” value was -0.0466.
For RRIRTRPPRLPRPRPRPVEFPRP, the “shrunken log2 fold change” value turned out to be 0.0128.
As to RRIRNRPPRLPRPRPRPWCFPRP, the “shrunken log2 fold change” value is -0.472.
With RRIRVRPPRLPRPRPRPGPEPRP the figure was 0.22; with RRIRRRPPRLPRPRPRPWYVPRP, 0.0457; with RRIRCRPPRLPRPRPRPRYLPRP, -0.799.
With RRIRQRPPRLPRPRPRPCMRPRP the figure was 0.0607; with RRIRARPPRLPRPRPRPTINPRP, -0.00779; with RRIRIRPPRLPRPRPRPNPFPRP, -0.502.
With RRIRQRPPRLPRPRPRPSTRPRP the figure was 0.00434; with RRIRGRPPRLPRPRPRPMCEPRP, 2.46.
Take RRIRCRPPRLPRPRPRPYGSPRP: the “shrunken log2 fold change” value is -0.517.
With RRIRYRPPRLPRPRPRPGVLPRP the figure was -0.916.
With RRIRQRPPRLPRPRPRPKRWPRP the figure was 0.0413; with RRIRRRPPRLPRPRPRPDYMPRP, -0.384.
Under RRIRCRPPRLPRPRPRPNDHPRP stands -0.716.
RRIRLRPPRLPRPRPRPYMEPRP: the “shrunken log2 fold change” value is 0.039.
Under RRIRMRPPRLPRPRPRPKIFPRP stands 0.0739; under RRIRKRPPRLPRPRPRPAEHPRP, 0.12; under RRIRPRPPRLPRPRPRPRMGPRP, 0.38.
Under RRIRVRPPRLPRPRPRPYECPRP stands -1.34; under RRIRVRPPRLPRPRPRPDSGPRP, -0.0439; under RRIRKRPPRLPRPRPRPAFVPRP, 0.423.
Under RRIRFRPPRLPRPRPRPEQAPRP stands -0.0421; under RRIRVRPPRLPRPRPRPQERPRP, -0.119; under RRIRARPPRLPRPRPRPKRKPRP, 0.654.
As for RRIRVRPPRLPRPRPRPPRYPRP, the “shrunken log2 fold change” value was 0.317.
Regarding RRIRVRPPRLPRPRPRPKQQPRP, the “shrunken log2 fold change” value stood at 0.0386.
Under RRIRLRPPRLPRPRPRPVEWPRP stands -0.228.
On to RRIRKRPPRLPRPRPRPRPQPRP, for which the “shrunken log2 fold change” value turned out to be 0.865.
With RRIRFRPPRLPRPRPRPNRPPRP, the “shrunken log2 fold change” value was -0.0705.
With RRIRHRPPRLPRPRPRPHIYPRP the figure was -0.169; with RRIRVRPPRLPRPRPRPLYKPRP, -0.584.
With RRIRKRPPRLPRPRPRPMHNPRP the figure was -0.136; with RRIRQRPPRLPRPRPRPETPPRP, 0.495; with RRIRMRPPRLPRPRPRPKPHPRP, 1.19.
For the sequence RRIRTRPPRLPRPRPRPCVGPRP, the “shrunken log2 fold change” value was -0.013.
Regarding RRIRHRPPRLPRPRPRPQLGPRP, the “shrunken log2 fold change” value amounted to 0.375.
With RRIRERPPRLPRPRPRPRELPRP the figure was 0.569; with RRIRLRPPRLPRPRPRPMGEPRP, 0.136; with RRIRTRPPRLPRPRPRPYTEPRP, -0.267.
With RRIRERPPRLPRPRPRPIECPRP the figure was -0.339; with RRIRNRPPRLPRPRPRPQFVPRP, -0.0944; with RRIRRRPPRLPRPRPRPYCGPRP, -0.379.
With RRIRPRPPRLPRPRPRPAMMPRP the figure was -0.214; with RRIRYRPPRLPRPRPRPLWMPRP, -0.63; with RRIRVRPPRLPRPRPRPETQPRP, 0.259.
As for RRIRFRPPRLPRPRPRPMKYPRP, the “shrunken log2 fold change” value is -0.664.
In the case of RRIRQRPPRLPRPRPRPWNHPRP, the “shrunken log2 fold change” value was -0.0081.
For the sequence RRIRDRPPRLPRPRPRPQKAPRP, the “shrunken log2 fold change” value was found to be 0.0864.
With RRIRMRPPRLPRPRPRPLKHPRP the figure was -0.0893; with RRIRHRPPRLPRPRPRPLMSPRP, -0.196; with RRIRYRPPRLPRPRPRPVSPPRP, -0.449.
RRIRVRPPRLPRPRPRPWTFPRP: the “shrunken log2 fold change” value is -0.0163.
In the case of RRIRFRPPRLPRPRPRPDDYPRP, the “shrunken log2 fold change” value is -0.0193.
With RRIRMRPPRLPRPRPRPLDCPRP the figure was 0.262; with RRIRCRPPRLPRPRPRPDYIPRP, 0.0495; with RRIRERPPRLPRPRPRPPWGPRP, 0.285.
With RRIRERPPRLPRPRPRPAFNPRP the figure was 0.495; with RRIRNRPPRLPRPRPRPNYPPRP, -0.0819.
Under RRIRVRPPRLPRPRPRPRRGPRP stands 0.579.
RRIRDRPPRLPRPRPRPSLTPRP: the “shrunken log2 fold change” value turned out to be 0.154.
With RRIRVRPPRLPRPRPRPWMQPRP the figure was -0.106; with RRIRCRPPRLPRPRPRPVMVPRP, -0.211; with RRIRRRPPRLPRPRPRPPFLPRP, 0.315.
Consider RRIRCRPPRLPRPRPRPERNPRP, for which the “shrunken log2 fold change” value is -0.223.
In the case of RRIRQRPPRLPRPRPRPSQYPRP, the “shrunken log2 fold change” value is -0.244.
With RRIRHRPPRLPRPRPRPDLAPRP the figure was 0.0081; with RRIRCRPPRLPRPRPRPENEPRP, 0.113.
With RRIRLRPPRLPRPRPRPVEYPRP the figure was -0.294.
Take RRIRCRPPRLPRPRPRPWKRPRP: the “shrunken log2 fold change” value was -0.0584.
For the sequence RRIRMRPPRLPRPRPRPSYNPRP, the “shrunken log2 fold change” value is -0.808.
RRIRFRPPRLPRPRPRPTYAPRP: the “shrunken log2 fold change” value is -0.203.
Under RRIRLRPPRLPRPRPRPKMTPRP stands -0.181.
As to RRIRHRPPRLPRPRPRPWRQPRP, the “shrunken log2 fold change” value was determined as 0.0449.
As for RRIRLRPPRLPRPRPRPEPVPRP, the “shrunken log2 fold change” value amounted to 2.62.
Under RRIRKRPPRLPRPRPRPEAAPRP stands 1.8.
With RRIRNRPPRLPRPRPRPNQKPRP the figure was -0.174; with RRIRARPPRLPRPRPRPECQPRP, 0.333; with RRIRERPPRLPRPRPRPTDCPRP, -0.399.
On to RRIRERPPRLPRPRPRPWAIPRP, for which the “shrunken log2 fold change” value was -0.0826.
With RRIRMRPPRLPRPRPRPYELPRP the figure was 0.0224; with RRIRFRPPRLPRPRPRPDQEPRP, -0.0176; with RRIRDRPPRLPRPRPRPHMGPRP, -0.174.
RRIRHRPPRLPRPRPRPYYIPRP: the “shrunken log2 fold change” value was 0.0121.
With RRIRNRPPRLPRPRPRPEICPRP the figure was 0.0654; with RRIRPRPPRLPRPRPRPEIRPRP, 0.0106.
In the case of RRIRERPPRLPRPRPRPRLHPRP, the “shrunken log2 fold change” value came out at 0.047.
As to RRIRWRPPRLPRPRPRPLQVPRP, the “shrunken log2 fold change” value is -0.125.
With RRIRPRPPRLPRPRPRPKAPPRP the figure was 0.171.
Under RRIRTRPPRLPRPRPRPKKEPRP stands -0.0512; under RRIRSRPPRLPRPRPRPADSPRP, -0.176.
For the sequence RRIRIRPPRLPRPRPRPFTSPRP, the “shrunken log2 fold change” value was -0.475.
Under RRIRKRPPRLPRPRPRPWMFPRP stands -0.000428.
Turning to RRIRIRPPRLPRPRPRPIAHPRP, the “shrunken log2 fold change” value was -0.358.
Under RRIRIRPPRLPRPRPRPNRCPRP stands -0.154.
With RRIRSRPPRLPRPRPRPNGVPRP the figure was -0.00885; with RRIRMRPPRLPRPRPRPDAAPRP, 3.98; with RRIRERPPRLPRPRPRPSERPRP, -0.239.
Under RRIRIRPPRLPRPRPRPCHVPRP stands -0.401.
Take RRIRARPPRLPRPRPRPPFIPRP: the “shrunken log2 fold change” value was -0.103.
Under RRIRGRPPRLPRPRPRPAKGPRP stands 0.0624; under RRIRCRPPRLPRPRPRPWNQPRP, -0.516.
Under RRIRDRPPRLPRPRPRPQCGPRP stands 0.192; under RRIRMRPPRLPRPRPRPCVQPRP, -0.0115.
With RRIRVRPPRLPRPRPRPWKCPRP the figure was -0.173; with RRIRGRPPRLPRPRPRPRGMPRP, 0.939.
For RRIRMRPPRLPRPRPRPKASPRP, the “shrunken log2 fold change” value came to 1.97.
Under RRIRTRPPRLPRPRPRPWCCPRP stands -0.227; under RRIRHRPPRLPRPRPRPSKIPRP, -0.517.
Regarding RRIRCRPPRLPRPRPRPASKPRP, the “shrunken log2 fold change” value was -0.438.
As to RRIRPRPPRLPRPRPRPTVRPRP, the “shrunken log2 fold change” value stood at 0.0204.
With RRIRTRPPRLPRPRPRPHLRPRP the figure was -0.264.
On to RRIRWRPPRLPRPRPRPSTVPRP, for which the “shrunken log2 fold change” value is -0.362.
Turning to RRIRTRPPRLPRPRPRPCIQPRP, the “shrunken log2 fold change” value turned out to be 0.0196.
Turning to RRIRTRPPRLPRPRPRPRFEPRP, the “shrunken log2 fold change” value stood at 0.0138.
RRIRSRPPRLPRPRPRPNMAPRP: the “shrunken log2 fold change” value was -0.0738.
